One experiment addresses Human CXCR4 (human) (UniProt P61073).
For a further experiment, the target named is CXCR4-FlAsH228 (human) (UniProt P61073).

Regarding “Recombinant human CXCL12 (from UniProt P48061 22-93) (ligand)”, the EC50 of CXCL12 for Gi1 activation, one representative experiment of Fig. 1D with Human CXCR4 (human) was found to be 3.3 nM; with CXCR4-FlAsH228 (human) it was 14.7 nM.

The values above are taken from paper PMC7330677.
